PMC9486893, “Protein Conformational Space at the Edge of Allostery: Turning a Nonallosteric Malate Dehydrogenase into an “Allosterized” Enzyme Using Evolution-Guided Punctual Mutations” (Molecular Biology and Evolution, 2022)
Numbering of substitutions follows the chain as printed. Numbers in names are those of the source. One block for each molecule: values may come before it.

Key:
[1] = biological target: Archaeoglobus fulgidus malate dehydrogenase mutant 3 (R102Q and P250I) (Archaeoglobus fulgidus); experiment: SEC-MALS; SEC-MALLS with refractometry; Enrich 650 column, 50 mM Tris-HCl pH 7.2, 50 mM NaCl, room temperature, 50 ul at ~1 mg/ml, 0.5 ml/min; self-association (dimer)
[2] = biological target: Archaeoglobus fulgidus malate dehydrogenase mutant 2 (P250I) (Archaeoglobus fulgidus); experiment: as above
[3] = biological target: Archaeoglobus fulgidus malate dehydrogenase mutant 1 (R102Q) (Archaeoglobus fulgidus); experiment: as above
[4] = substrate: CC(=O)C(=O)O; experiment: purified protein; format: biochemical, Archaeoglobus fulgidus; conditions: 0.5 mM NADH, MES pH 6.0, 50 mM NaCl, 70 °C (340 K in Figure 3)
[5] = substrate: O=C(O)CC(=O)C(=O)O; experiment: purified protein; format: biochemical, Archaeoglobus fulgidus; conditions: 0.5 mM NADH, 50 mM potassium phosphate pH 7.0, 50 mM NaCl
[6] = biological target: the molecule itself; experiment: SEC-MALS; SEC-MALLS with refractometry; Enrich 650 column, 50 mM Tris-HCl pH 7.2, 50 mM NaCl, room temperature, 50 ul at ~1 mg/ml, 0.5 ml/min; self-association (dimer)
[7] = mutant 3, sigmoid (homotropic activation)
[8] = 70 °C (340 K in Figure 3), mutant 2, hyperbolic, text b25 gives 1.31 mM
[9] = 70 °C (340 K in Figure 3), substrate inhibition at excess OAA

stoichiometry N [1]: 2
Molecule: Archaeoglobus fulgidus malate dehydrogenase mutant 3 (R102Q and P250I) (enzyme)

stoichiometry N [2]: 2
Molecule: Archaeoglobus fulgidus malate dehydrogenase mutant 2 (P250I) (enzyme)

stoichiometry N [3]: 2
Molecule: Archaeoglobus fulgidus malate dehydrogenase mutant 1 (R102Q) (enzyme)

B1: Wt A. fulgidus MalDH (Archaeoglobus fulgidus DSM 4304; P216I/R81Q) (protein)
chain: MKLGFVGAGRVGSTSAFTCLLNLDVDEIALVDIAEDLAVGEAMDLAHAAAGIDKYPKIVGGADYSLLKGSEIIVVTAGLAQKPGMTRLDLAHKNAGIIKDIAKKIVENAPESKILVVTNPMDVMTYIMWKESGKPRNEVFGMGNQLDSQRLKERLYNAGARNIRRAWIIGEHGDSMFVAKSLADFDGEVDWEAVENDVRFVAAEVIKRKGATIFGIAVAIYRMVKAVVEDTGEIIPTSMILQGEYGIENVAVGVPAKLGKNGAEVADIKLSDEEIEKLRNSAKILRERLEELGY
notes: full-length, codon-optimized synthetic gene in pET-20a (NdeI/BamHI), E. coli BL21 DE3 pLysS; no tag mentioned; homodimer, theoretical 72 kDa (SEC-MALLS 62-65 kDa)
K0.5 [4, 7]: 100 mM | kcat [4, 7]: 21 s⁻¹ | kcat/Km [4, 7]: 210 M⁻¹ s⁻¹

B2: Wt A. fulgidus MalDH (Archaeoglobus fulgidus DSM 4304; P216I) (protein)
chain: B1 chain with Q81R
notes: as for B1
K0.5 [5, 8]: 1.3 mM | kcat [5, 8]: 175 s⁻¹ | kcat/Km [5, 8]: 130000 M⁻¹ s⁻¹

B3: Wt A. fulgidus MalDH (Archaeoglobus fulgidus DSM 4304; R81Q) (protein)
chain: B1 chain with I216P
notes: as for B1
K0.5 ([5]; 70 °C, mutant 1, pH 7.0): 14 mM | kcat ([5]; 70 °C, mutant 1, pH 7.0): 12 s⁻¹ | kcat/Km ([5]; 70 °C, mutant 1, pH 7.0): 900 M⁻¹ s⁻¹ | K0.5 ([4]; mutant 1, pH 6.0): 5.6 mM | kcat ([4]; mutant 1, pH 6.0): 40 s⁻¹ | kcat/Km ([4]; mutant 1, pH 6.0): 7100 M⁻¹ s⁻¹

B4: Wild-type Archaeoglobus fulgidus malate dehydrogenase (enzyme)
chain: B1 chain with Q81R, I216P
notes: synthetic gene codon-optimised for E. coli, in pET-20a (NdeI/BamHI); No tag is mentioned; purification was by heat treatment, ion exchange and gel filtration; Homodimer; also called Wt A. fulgidus MalDH; Wt enzyme; source: E. coli BL21 DE3 pLysS, purified (70 °C heat step, Q sepharose, gel filtration)
stoichiometry N [6]: 2 | K0.5 [5, 9]: 0.1 mM | kcat [5, 9]: 417 s⁻¹ | kcat/Km [5, 9]: 4.3e+06 M⁻¹ s⁻¹
